Source: patent US20150344570A1 (published 2015)

T1: FcγRIIb extracellular domain with C-terminal His tag (human, UniProt P31994 43-217)
T1 construct: extracellular domain; also called FcgRIIb; 2b; not shown: His tag at the C terminus
T1 sequence (looked up): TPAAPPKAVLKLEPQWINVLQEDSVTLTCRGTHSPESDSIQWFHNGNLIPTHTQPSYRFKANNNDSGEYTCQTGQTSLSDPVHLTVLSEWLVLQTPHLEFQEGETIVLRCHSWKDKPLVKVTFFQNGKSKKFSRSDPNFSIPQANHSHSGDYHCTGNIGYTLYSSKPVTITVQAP

B1: GpH7-A5/GpH7-B3 variant S337_16H/GpL16-k0 (antibody, human IgG1, kappa)
heavy 1: not shown
heavy 2: not shown
light: DIVMTQSPLSLPVTPGEPASISCQASESLVHSNRNTYLHWYLQKPGQSPQLLIYKVSNRFSGVPDRFSGSGSGTDFTLKISRVEAEDVGVYYCSQNTHVPPTFGQGTKVEIERTVAAPSVFIFPPSDEQLKSGTASVVCLLNNFYPREAKVQWKVDNALQSGNSQESVTEQDSKDSTYSLSSTLTLSKADYEKHKVYACEVTHQGLSSPVTKSFNRGEC
notes: also called He Ab S337_16H
B2: GpH7-A5/GpH7-B3 variant S324_06M/GpL16-k0 (antibody, human IgG1, kappa)
heavy 1: not shown
heavy 2: not shown
light: B1 light
notes: also called He Ab S324_06M
B3: GpH7-A5/GpH7-B3 variant G237_20W/GpL16-k0 (antibody, human IgG1, kappa)
heavy 1: not shown
heavy 2: not shown
light: B1 light
notes: also called He Ab G237_20W
B4: GpH7-A5/GpH7-B3 variant S239_03V/GpL16-k0 (antibody, human IgG1, kappa)
heavy 1: not shown
heavy 2: not shown
light: B1 light
notes: also called He Ab S239_03V
B5: GpH7-A5/GpH7-B3 variant K334_07I/GpL16-k0 (antibody, human IgG1, kappa)
heavy 1: not shown
heavy 2: not shown
light: B1 light
notes: also called He Ab K334_07I
B6: GpH7-A5/GpH7-B3 variant L328_13S/GpL16-k0 (antibody, human IgG1, kappa)
heavy 1: not shown
heavy 2: not shown
light: B1 light
notes: also called He Ab L328_13S
B7: GpH7-A5/GpH7-B3 variant P238_04F/GpL16-k0 (antibody, human IgG1, kappa)
heavy 1: not shown
heavy 2: not shown
light: B1 light
notes: also called He Ab P238_04F
B8: GpH7-A5/GpH7-B3 variant K334_14T/GpL16-k0 (antibody, human IgG1, kappa)
heavy 1: not shown
heavy 2: not shown
light: B1 light
notes: also called He Ab K334_14T
B9: GpH7-A5/GpH7-B3 variant G236_10E/GpL16-k0 (antibody, human IgG1, kappa)
heavy 1: not shown
heavy 2: not shown
light: B1 light
notes: also called He Ab G236_10E
B10: GpH7-A5/GpH7-B3 variant K334_13S/GpL16-k0 (antibody, human IgG1, kappa)
heavy 1: not shown
heavy 2: not shown
light: B1 light
notes: also called He Ab K334_13S
B11: GpH7-A5/GpH7-B3 variant I332_09D/GpL16-k0 (antibody, human IgG1, kappa)
heavy 1: not shown
heavy 2: not shown
light: B1 light
notes: also called He Ab I332_09D
B12: GpH7-A5/GpH7-B3 variant I332_10E/GpL16-k0 (antibody, human IgG1, kappa)
heavy 1: not shown
heavy 2: not shown
light: B1 light
notes: also called He Ab I332_10E
B13: GpH7-A5/GpH7-B3 variant H268_10E/GpL16-k0 (antibody, human IgG1, kappa)
heavy 1: not shown
heavy 2: not shown
light: B1 light
notes: also called He Ab H268_10E
B14: GpH7-A5/GpH7-B3 variant G236_09D/GpL16-k0 (antibody, human IgG1, kappa)
heavy 1: not shown
heavy 2: not shown
light: B1 light
notes: also called He Ab G236_09D
B15: GpH7-A5/GpH7-B3 variant H268_13S/GpL16-k0 (antibody, human IgG1, kappa)
heavy 1: not shown
heavy 2: not shown
light: B1 light
notes: also called He Ab H268_13S
B16: GpH7-A5/GpH7-B3 variant H268_01G/GpL16-k0 (antibody, human IgG1, kappa)
heavy 1: not shown
heavy 2: not shown
light: B1 light
notes: also called He Ab H268_01G
B17: GpH7-A5/GpH7-B3 variant K334_03V/GpL16-k0 (antibody, human IgG1, kappa)
heavy 1: not shown
heavy 2: not shown
light: B1 light
notes: also called He Ab K334_03V
B18: GpH7-A5/GpH7-B3 variant P331_16H/GpL16-k0 (antibody, human IgG1, kappa)
heavy 1: not shown
heavy 2: not shown
light: B1 light
notes: also called He Ab P331_16H
B19: GpH7-A5/GpH7-B3 variant S267_19Q/GpL16-k0 (antibody, human IgG1, kappa)
heavy 1: not shown
heavy 2: not shown
light: B1 light
notes: also called He Ab S267_19Q
B20: GpH7-A5/GpH7-B3 variant K326_08L/GpL16-k0 (antibody, human IgG1, kappa)
heavy 1: not shown
heavy 2: not shown
light: B1 light
notes: also called He Ab K326_08L
B21: GpH7-A5/GpH7-B3 variant T335_07I/GpL16-k0 (antibody, human IgG1, kappa)
heavy 1: not shown
heavy 2: not shown
light: B1 light
notes: also called He Ab T335_07I
B22: GpH7-A5/GpH7-B3 variant A327_10E/GpL16-k0 (antibody, human IgG1, kappa)
heavy 1: not shown
heavy 2: not shown
light: B1 light
notes: also called He Ab A327_10E
B23: GpH7-A5/GpH7-B3 variant K334_04F/GpL16-k0 (antibody, human IgG1, kappa)
heavy 1: not shown
heavy 2: not shown
light: B1 light
notes: also called He Ab K334_04F
B24: GpH7-A5/GpH7-B3 variant K326_09D/GpL16-k0 (antibody, human IgG1, kappa)
heavy 1: not shown
heavy 2: not shown
light: B1 light
notes: also called He Ab K326_09D
B25: GpH7-A5/GpH7-B3 variant P238_15Y/GpL16-k0 (antibody, human IgG1, kappa)
heavy 1: not shown
heavy 2: not shown
light: B1 light
notes: also called He Ab P238_15Y
B26: GpH7-A5/GpH7-B3 variant K326_15Y/GpL16-k0 (antibody, human IgG1, kappa)
heavy 1: not shown
heavy 2: not shown
light: B1 light
notes: also called He Ab K326_15Y
B27: GpH7-A5/GpH7-B3 variant K326_20W/GpL16-k0 (antibody, human IgG1, kappa)
heavy 1: not shown
heavy 2: not shown
light: B1 light
notes: also called He Ab K326_20W
B28: GpH7-A5/GpH7-B3 variant K334_08L/GpL16-k0 (antibody, human IgG1, kappa)
heavy 1: not shown
heavy 2: not shown
light: B1 light
notes: also called He Ab K334_08L

molecular target: T1, FcγRIIb extracellular domain with …; test: SPR, relative binding, HeCon Ab = 100
Description: Analysis of interaction between objective antibody and the FcγR was carried out using Biacore T100 (GE Healthcare). HBS-EP+ (GE Healthcare) was used as the running buffer, and the measurement temperature was set to 25° C. Chips produced by immobilizing the antigen peptide by the amine coupling method to a Series S Sencor Chip CM5 (GE Healthcare), or alternatively, chips produced by allowing preliminarily biotinylated antigen peptides to interact with and immobilize onto a Series S Sensor Chip SA (certified) (GE Healthcare) were used. Antibodies of interest were captured onto an antigen peptide-immobilized chip, and allowed to interact to each FcγR diluted with running buffer. To regenerate and repeatedly use the chip, the antibodies captured on the chip were washed off by reacting 10 mM glycine-HCl, pH 1.5.

He/Con_2b | Binder
105 % of control | B1
112 % of control | B2
193 % of control | B3
108 % of control | B4
119 % of control | B5
149 % of control | B6
312 % of control | B7
115 % of control | B8
110 % of control | B9
111 % of control | B10
147 % of control | B11
142 % of control | B12
230 % of control | B13
167 % of control | B14
160 % of control | B15
144 % of control | B16
125 % of control | B17
116 % of control | B18
218 % of control | B19
177 % of control | B20
106 % of control | B21
140 % of control | B22
111 % of control | B23
193 % of control | B24
218 % of control | B25
159 % of control | B26
148 % of control | B27
106 % of control | B28
